Measurements published in patent US20190032033A1 (HEPTARES THERAPEUTICS, published 2019).
Like-named read-outs stand apart in the source and are kept apart here.

How the values were obtained:
[1] = molecular target: T1, human adenosine A2A receptor (residues 1-308, N154A) (human, UniProt P29274 1-308); assay: cell-based or functional assay
[2] = molecular target: T1, human adenosine A2A receptor (residues …); assay: cell-based or functional assay; remark: listed apart in the source
[3] = molecular target: T2, thioredoxin-A2AR fusion protein (human, UniProt P29274 6-316); assay: analytical SEC of purified NECA-bound A2AR mixed with mini-Gs/q (1:1.2 molar ratio) and Coomassie-stained SDS-PAGE of fractions 10-20
T2 construct: range 6-316; gp67 leader is cleavable; not shown: His10 tag, TEV protease cleavage site and thioredoxin
T2 sequence (P29274 other isoform, or with tags, fused parts or gaps): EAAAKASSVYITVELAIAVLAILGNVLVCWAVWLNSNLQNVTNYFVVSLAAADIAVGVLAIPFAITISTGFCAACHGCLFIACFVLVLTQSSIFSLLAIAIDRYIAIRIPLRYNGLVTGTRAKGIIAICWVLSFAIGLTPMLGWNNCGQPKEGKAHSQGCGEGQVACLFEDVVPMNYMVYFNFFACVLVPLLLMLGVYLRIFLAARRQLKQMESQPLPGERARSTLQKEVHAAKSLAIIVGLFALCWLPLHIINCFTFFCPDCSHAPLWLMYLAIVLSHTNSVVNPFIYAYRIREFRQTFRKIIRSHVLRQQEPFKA

[4] = molecular target: T3, C-terminally truncated human A2AR (residues 1-317, N154A) (human, UniProt P29274 1-317); assay: thermostability assay, DM-solubilised NECA-bound A2AR
T3 construct: range 1-317; C-terminal TEV site and His10 tag kept (used for immobilisation)
T3 sequence (P29274 1-317 N154A): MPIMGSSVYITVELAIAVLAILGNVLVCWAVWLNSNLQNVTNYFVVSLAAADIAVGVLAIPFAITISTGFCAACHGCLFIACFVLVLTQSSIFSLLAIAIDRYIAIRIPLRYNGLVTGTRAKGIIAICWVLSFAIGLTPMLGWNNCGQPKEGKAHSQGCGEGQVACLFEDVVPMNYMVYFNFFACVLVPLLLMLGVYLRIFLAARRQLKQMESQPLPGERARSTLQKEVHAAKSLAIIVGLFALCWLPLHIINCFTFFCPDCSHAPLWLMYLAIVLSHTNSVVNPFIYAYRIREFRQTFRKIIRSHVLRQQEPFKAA

[5] = molecular target: rat neurotensin receptor NTSR1 (residues 43-396) (rat, UniProt P20789 43-396); assay: cell-based or functional assay
rat neurotensin receptor NTSR1 (residues 43-396), sequence (P20789 43-396 limits assumed): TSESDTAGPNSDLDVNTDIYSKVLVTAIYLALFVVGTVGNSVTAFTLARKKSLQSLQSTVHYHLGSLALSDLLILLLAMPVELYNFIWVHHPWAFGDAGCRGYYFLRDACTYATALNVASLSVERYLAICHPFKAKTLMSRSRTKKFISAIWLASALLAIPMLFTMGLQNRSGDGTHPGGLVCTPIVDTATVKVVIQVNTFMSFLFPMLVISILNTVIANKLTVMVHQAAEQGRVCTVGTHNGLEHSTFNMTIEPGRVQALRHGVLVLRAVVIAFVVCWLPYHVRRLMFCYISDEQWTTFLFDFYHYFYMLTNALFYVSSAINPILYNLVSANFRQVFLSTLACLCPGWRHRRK

[6] = molecular target: T4, human angiotensin II type 1 receptor AT1R (residues 1-359) (human, UniProt P30556 1-359); assay: cell-based or functional assay
T4 sequence (looked up): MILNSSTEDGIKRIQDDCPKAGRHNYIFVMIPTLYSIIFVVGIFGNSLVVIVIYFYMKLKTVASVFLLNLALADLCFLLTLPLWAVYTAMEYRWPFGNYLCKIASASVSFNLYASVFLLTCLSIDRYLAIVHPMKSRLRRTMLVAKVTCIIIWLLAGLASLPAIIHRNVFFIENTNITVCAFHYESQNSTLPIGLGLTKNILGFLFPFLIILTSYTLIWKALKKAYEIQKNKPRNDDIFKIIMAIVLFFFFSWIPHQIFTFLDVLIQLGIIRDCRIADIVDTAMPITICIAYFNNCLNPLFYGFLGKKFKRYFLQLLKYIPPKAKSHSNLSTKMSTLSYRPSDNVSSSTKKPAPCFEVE

[7] = molecular target: T3, C-terminally truncated human A2AR …; assay: cell-based or functional assay
[8] = molecular target: β1AR-WT (wild type-like turkey β1 adrenergic receptor construct) (turkey, UniProt P07700 33-423, limits assumed); assay: cell-based or functional assay
β1AR-WT (wild type-like turkey β1 adrenergic receptor construct), sequence (P07700 other isoform, or with tags, fused parts or gaps limits assumed): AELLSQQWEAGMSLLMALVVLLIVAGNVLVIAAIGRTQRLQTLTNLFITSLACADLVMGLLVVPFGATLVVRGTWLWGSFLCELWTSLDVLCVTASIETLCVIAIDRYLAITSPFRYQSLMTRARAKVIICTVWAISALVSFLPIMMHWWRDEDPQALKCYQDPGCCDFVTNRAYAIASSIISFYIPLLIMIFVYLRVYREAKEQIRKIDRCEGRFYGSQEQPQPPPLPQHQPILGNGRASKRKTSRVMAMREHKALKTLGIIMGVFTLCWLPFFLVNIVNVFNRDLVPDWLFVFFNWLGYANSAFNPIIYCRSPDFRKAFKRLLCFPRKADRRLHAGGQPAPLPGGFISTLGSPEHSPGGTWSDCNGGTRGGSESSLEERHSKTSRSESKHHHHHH

[9] = molecular target: T2, thioredoxin-A2AR fusion protein; assay: analytical SEC of purified NECA-bound A2AR mixed with mini-Gs/q (1:1.2 molar ratio) and Coomassie-stained SDS-PAGE of fractions 10-20; remark: listed apart in the source

T1 sequence (P29274 1-308 N154A): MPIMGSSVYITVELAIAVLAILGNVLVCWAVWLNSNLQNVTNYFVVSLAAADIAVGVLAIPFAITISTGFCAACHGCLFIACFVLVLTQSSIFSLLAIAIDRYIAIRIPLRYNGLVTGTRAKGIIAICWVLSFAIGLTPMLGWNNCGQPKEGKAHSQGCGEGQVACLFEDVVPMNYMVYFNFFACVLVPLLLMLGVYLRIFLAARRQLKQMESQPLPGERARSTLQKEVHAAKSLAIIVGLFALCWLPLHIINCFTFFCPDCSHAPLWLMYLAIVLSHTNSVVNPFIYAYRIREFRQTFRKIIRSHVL

B1: Mini-Gs414 (other)
chain: GIEKQLQKDKQVYRATHRLLLLGADNSGKSTIVKQMRIYHGGSGGSGGTSGIFETKFQVDKVNFHMFDVGGQRDERRKWIQCFNDVTAIIFVVDSSDYNRLQEALNDFKSIWNNRWLRTISVILFLNKQDLLAEKVLAGKSKIEDYFPEFARYTTPEDATPEPGEDPRVTRAKYFIRDEFLRISTASGDGRHYCYPHFTCAVDTENARRIFNDCRDIIQRMHLRQYELL
ΔTm of 3H-NECA-bound A2AR with mini-Gs414 against A2AR only, in decylmaltoside (DM) [1]: 6.8 °C
ΔTm of 3H-NECA-bound A2AR with mini-Gs414 against A2AR only, in dodecylmaltoside (DDM) [1]: 7.2 °C
ΔTm of 3H-NECA-bound A2AR with mini-Gs414 against A2AR only, in octylglucoside (OG) [1]: 13.4 °C
apparent Tm of DM-solubilised NECA-bound A2AR [2]: 32.9 °C

B2: mini-Gs/q70 (other)
chain: GIEKQLQKDKQVYRATHRLLLLGADNSGKSTIVKQMRILHGGSGGSGGTSGIFETKFQVDKVNFHMFDVGGQRDERRKWIQCFNDVTAIIFVVDSSDYNRLQEALNDFKSIWNNRWLRTISVILFLNKQDLLAEKVLAGKSKIEDYFPEFARYTTPEDATPEPGEDPRVTRAKYFIRDEFLRISTASGDGRHYCYPHFTCAVDTENARRIFNDCKDIILQMNLREYNLV
notes: also called mini-Gs/q chimera; Gs/q construct 70
binding result [3]: no binding
binding result [4]: no binding (tested: 25 µM)
apparent Tm of DDM-solubilised 3H-NTS-bound NTSR1 (alone 24.9 °C) [5]: 32.5 °C
apparent Tm of digitonin-solubilised 125I-AngII-bound AT1R (alone 22.6 °C) [6]: 30.7 °C
apparent Tm of DM-solubilised 3H-NECA-bound A2AR (alone 26.9 °C) [7]: 27.5 °C

B3: Mini Gs393 (other)
chain: GIEKQLQKDKQVYRATHRLLLLGADNSGKSTIVKQMRILHGGSGGSGGTSGIFETKFQVDKVNFHMFDVGGQRDERRKWIQCFNDVTAIIFVVDSSDYNRLQEALNDFKSIWNNRWLRTISVILFLNKQDLLAEKVLAGKSKIEDYFPEFARYTTPEDATPEPGEDPRVTRAKYFIRDEFLRISTASGDGRHYCYPHFTCAVDTENARRIFNDCRDIIQRMHLRQYELL
apparent Tm of β1AR-WT complex in decylmaltoside (receptor alone 20.4 °C) [8]: 30.5 °C
apparent Tm of β1AR-WT complex in dodecylmaltoside (receptor alone 25.9 °C) [8]: 34.1 °C
apparent Tm of β1AR-WT complex in nonylglucoside (uncoupled receptor did not survive) [8]: 24.7 °C
apparent Tm of β1AR-WT complex in octylglucoside (uncoupled receptor did not survive) [8]: 19.7 °C

B4: mini-Gs/q58 (other)
chain: MGHHHHHHENLYFQGIEKQLQKDKQVYRATHRLLLLGADNSGKSTIVKQMRILHGGSGGSGGTSGIFETKFQVDKVNFHMFDVGGQRDERRKWIQCFNDVTAIIFVVDSSDYNRLQEALNDFKSIWNNRWLRTISVILFLNKQDLLAEKVLAGKSKIEDYFPEFARYTTPEDATPEPGEDPRVTRAKYFIRDEFLRISTASGDGRHYCYPHFTCAVDTENARRIFAAVKDTILQLNLKEYNLV
binding result [4]: no binding (tested: 25 µM)
apparent Tm of DDM-solubilised 3H-NTS-bound NTSR1 (alone 24.9 °C) [5]: 25.1 °C
apparent Tm of DM-solubilised 3H-NECA-bound A2AR (alone 26.9 °C) [7]: 26.9 °C
binding result [9]: no binding
